# Experimental data as given in patent publication US20220402995A1 (TOSOH, published 2022).
# Substitutions are numbered along the chain they refer to.
# B1: AAV-binding protein No. 60 (AVR2 + Lys323Glu) (receptor)
# chain: MGSAGESVQITLPENEVQLNAYVLQEPPKGETCTYDWQLITHPRDYSGEMEGKHSQILKLSKLTPGLYEFKVIVEGQNAHSEGYVNVTVKPEPRKNRPPIAIVSPQFQEISLPTTSTVIDGSQSTDDDKIVQYHWEELKGPLREEKISEDTAILKLSKLVPGNYTFSLTVVDSDGATNSTTANLTVNKAVDHHHHHH
# B2: AAV-binding protein No. 72 (AVR2 + Val394Ala) (receptor)
# chain: B1 chain with E14K, V85A
# B3: AAV-binding protein No. 78 (AVR2 + Leu328Pro, Ile366Phe) (receptor)
# chain: B1 chain with E14K, L19P, I57F
# B4: AAV-binding protein No. 81 (AVR2 + Phe379Ser, Ser476Gly) (receptor)
# chain: B1 chain with E14K, F70S, S167G
# B5: AAV-binding protein No. 63 (AVR2 + Tyr331His) (receptor)
# chain: B1 chain with E14K, Y22H
# B6: AAV-binding protein No. 68 (AVR2 + Tyr(Cys)342Arg) (receptor)
# chain: B1 chain with E14K, C33R
# notes: Cys342 of AVR2 replaced by Arg
# B7: AAV-binding protein No. 83 (AVR2 + Ile319Ser, Thr320Ile, Lys399Glu) (receptor)
# chain: B1 chain with I10S, T11I, E14K, K90E
# B8: AAV-binding protein No. 79 (AVR2 + Lys338Asn, Asn487Asp) (receptor)
# chain: B1 chain with E14K, K29N, N178D
# B9: AAV-binding protein No. 73 (AVR2 + Val396Ala) (receptor)
# chain: B1 chain with E14K, V87A
# B10: AAV-binding protein No. 67 (AVR2 + Pro337Gln) (receptor)
# chain: B1 chain with E14K, P28Q
# B11: AAV-binding protein No. 84 (AVR2 + Pro336Gln, Gln386Arg, Asn487Asp) (receptor)
# chain: B1 chain with E14K, P27Q, Q77R, N178D
# B12: AAV-binding protein No. 66 (AVR2 + Leu333Pro) (receptor)
# chain: B1 chain with E14K, L24P
# B13: AAV-binding protein No. 65 (AVR2 + Val332Glu) (receptor)
# chain: B1 chain with E14K, V23E
# B14: AAV-binding protein No. 77 (AVR2 + Leu321Pro, Ile409Val) (receptor)
# chain: B1 chain with L12P, E14K, I100V
# B15: AAV-binding protein No. 76 (AVR2 + Asn492Asp) (receptor)
# chain: B1 chain with E14K, N183D
# B16: AAV-binding protein No. 61 (AVR2 + Leu328Gln) (receptor)
# chain: B1 chain with E14K, L19Q
# B17: AAV-binding protein No. 62 (AVR2 + Leu328Pro) (receptor)
# chain: B1 chain with E14K, L19P
# B18: AAV-binding protein No. 71 (AVR2 + His389Asp) (receptor)
# chain: B1 chain with E14K, H80D
# B19: AAV-binding protein No. 69 (AVR2 + Thr350Ser) (receptor)
# chain: B1 chain with E14K, T41S
# B20: AAV-binding protein No. 70 (AVR2 + Val383Ala) (receptor)
# chain: B1 chain with E14K, V74A
# B21: AAV-binding protein No. 64 (AVR2 + Val332Ala) (receptor)
# chain: B1 chain with E14K, V23A
# B22: AAV-binding protein No. 82 (AVR2 + Ser476Arg, Thr490Ser) (receptor)
# chain: B1 chain with E14K, S167R, T181S
# B23: AAV-binding protein No. 74 (AVR2 + Ser476Gly) (receptor)
# chain: B1 chain with E14K, S167G
# B24: AAV-binding protein No. 80 (AVR2 + Gln365Arg, Gly392Cys) (receptor)
# chain: B1 chain with E14K, Q56R, G83C
# B25: AAV-binding protein No. 96 (AVR5e + Val326Glu, Phe379Ser) (receptor)
# chain: B1 chain with E14K, V17E, F70S, K90E, S167R, N178D
# B26: AAV-binding protein No. 92 (AVR5e + Thr320Ala, Val381Asp) (receptor)
# chain: B1 chain with T11A, E14K, V72D, K90E, S167R, N178D
# B27: AAV-binding protein No. 100 (AVR5e + Asn324Asp, Lys362Glu, Val499Glu) (receptor)
# chain: B1 chain with E14K, N15D, K53E, K90E, S167R, N178D, V190E
# B28: AAV-binding protein No. 90 (AVR5e + Gly392Cys) (receptor)
# chain: B1 chain with E14K, G83C, K90E, S167R, N178D
# B29: AAV-binding protein No. 89 (AVR5e + Glu378Gly) (receptor)
# chain: B1 chain with E14K, E69G, K90E, S167R, N178D
# B30: AAV-binding protein No. 97 (AVR5e + Val332Ala, Lys371Glu) (receptor)
# chain: B1 chain with E14K, V23A, K62E, K90E, S167R, N178D
# B31: AAV-binding protein No. 98 (AVR5e + Leu376Pro, Asn492Asp) (receptor)
# chain: B1 chain with E14K, L67P, K90E, S167R, N178D, N183D
# B32: AAV-binding protein No. 94 (AVR5e + Val326Glu, Asn329His) (receptor)
# chain: B1 chain with E14K, V17E, N20H, K90E, S167R, N178D
# B33: AAV-binding protein No. 86 (AVR5e + Lys371Glu) (receptor)
# chain: B1 chain with E14K, K62E, K90E, S167R, N178D
# B34: AAV-binding protein No. 95 (AVR5e + Val326Ala, Lys362Glu) (receptor)
# chain: B1 chain with E14K, V17A, K53E, K90E, S167R, N178D
# B35: AAV-binding protein No. 88 (AVR5e + Leu376Pro) (receptor)
# chain: B1 chain with E14K, L67P, K90E, S167R, N178D
# B36: AAV-binding protein No. 87 (AVR5e + Lys371Asn) (receptor)
# chain: B1 chain with E14K, K62N, K90E, S167R, N178D
# B37: AAV-binding protein No. 85 (AVR5e + Val317Asp) (receptor)
# chain: B1 chain with V8D, E14K, K90E, S167R, N178D
# B38: AAV-binding protein No. 102 (AVR5e + Leu328Pro, Lys362Asn, Thr397Ser, Arg406His) (receptor)
# chain: B1 chain with E14K, L19P, K53N, T88S, K90E, R97H, S167R, N178D
# B39: AAV-binding protein No. 101 (AVR5e + Val326Glu, Asn329His, Glu378Val) (receptor)
# chain: B1 chain with E14K, V17E, N20H, E69V, K90E, S167R, N178D
# B40: AVR7b (AAV-binding protein No. 91; AVR5e + Val317Asp, Lys371Asn) (receptor)
# chain: B1 chain with V8D, E14K, K62N, K90E, S167R, N178D
# B41: AAV-binding protein No. 99 (AVR5e + Gln318Pro, Phe379Tyr, Glu401Val) (receptor)
# chain: B1 chain with Q9P, E14K, F70Y, K90E, E92V, S167R, N178D
# Target: T1, VLP2 (virus-like particles of AAV2) (AAV2, UniProt P03135 1-735; P03135 1-598; P03135 1-533)
# T1 construct: Empty AAV2 capsid; background says about 60 protein molecules, VP1:VP2:VP3 = 1:1:10; Immobilised on the ELISA plate
# T1 sequence (P03135 whole entry, chain 1 of 3): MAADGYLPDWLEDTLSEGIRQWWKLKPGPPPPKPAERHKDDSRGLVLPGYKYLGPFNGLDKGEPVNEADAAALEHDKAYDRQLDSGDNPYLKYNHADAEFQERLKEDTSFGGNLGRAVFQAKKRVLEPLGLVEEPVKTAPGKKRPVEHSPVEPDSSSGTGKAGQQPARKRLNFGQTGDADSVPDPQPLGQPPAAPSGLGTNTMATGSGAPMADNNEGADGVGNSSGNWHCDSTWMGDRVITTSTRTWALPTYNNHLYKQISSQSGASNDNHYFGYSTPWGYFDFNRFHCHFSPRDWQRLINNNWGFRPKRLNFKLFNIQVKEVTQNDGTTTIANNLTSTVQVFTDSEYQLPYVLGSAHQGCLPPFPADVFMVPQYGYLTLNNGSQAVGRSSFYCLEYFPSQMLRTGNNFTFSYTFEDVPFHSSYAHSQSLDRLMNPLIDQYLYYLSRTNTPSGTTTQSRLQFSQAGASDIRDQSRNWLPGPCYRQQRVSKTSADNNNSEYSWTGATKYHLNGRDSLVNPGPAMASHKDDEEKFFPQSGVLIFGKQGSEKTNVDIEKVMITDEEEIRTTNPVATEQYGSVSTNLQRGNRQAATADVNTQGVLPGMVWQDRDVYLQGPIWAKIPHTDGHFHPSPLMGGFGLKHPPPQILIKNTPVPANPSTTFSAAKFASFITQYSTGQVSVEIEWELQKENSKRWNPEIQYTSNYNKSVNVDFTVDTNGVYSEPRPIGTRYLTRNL
# T1 sequence (P03135 139-735, tags left off, chain 2 of 3): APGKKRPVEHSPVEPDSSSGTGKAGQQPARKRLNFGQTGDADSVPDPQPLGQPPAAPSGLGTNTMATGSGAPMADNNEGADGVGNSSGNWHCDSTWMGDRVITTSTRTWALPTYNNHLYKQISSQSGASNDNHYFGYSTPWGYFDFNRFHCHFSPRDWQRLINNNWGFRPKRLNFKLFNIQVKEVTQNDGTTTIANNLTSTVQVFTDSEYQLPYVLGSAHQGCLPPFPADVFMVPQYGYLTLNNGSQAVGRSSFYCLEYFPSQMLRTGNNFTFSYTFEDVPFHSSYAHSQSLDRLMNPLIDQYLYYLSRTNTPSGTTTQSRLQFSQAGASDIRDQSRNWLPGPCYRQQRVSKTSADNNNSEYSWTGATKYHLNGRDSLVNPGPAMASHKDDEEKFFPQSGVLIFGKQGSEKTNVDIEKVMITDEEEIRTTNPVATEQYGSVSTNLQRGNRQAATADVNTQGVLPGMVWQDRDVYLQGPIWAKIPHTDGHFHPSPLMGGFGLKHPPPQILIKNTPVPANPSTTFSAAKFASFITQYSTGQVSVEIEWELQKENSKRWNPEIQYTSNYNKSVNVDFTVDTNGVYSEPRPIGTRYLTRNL
# T1 sequence (P03135 203-735, chain 3 of 3): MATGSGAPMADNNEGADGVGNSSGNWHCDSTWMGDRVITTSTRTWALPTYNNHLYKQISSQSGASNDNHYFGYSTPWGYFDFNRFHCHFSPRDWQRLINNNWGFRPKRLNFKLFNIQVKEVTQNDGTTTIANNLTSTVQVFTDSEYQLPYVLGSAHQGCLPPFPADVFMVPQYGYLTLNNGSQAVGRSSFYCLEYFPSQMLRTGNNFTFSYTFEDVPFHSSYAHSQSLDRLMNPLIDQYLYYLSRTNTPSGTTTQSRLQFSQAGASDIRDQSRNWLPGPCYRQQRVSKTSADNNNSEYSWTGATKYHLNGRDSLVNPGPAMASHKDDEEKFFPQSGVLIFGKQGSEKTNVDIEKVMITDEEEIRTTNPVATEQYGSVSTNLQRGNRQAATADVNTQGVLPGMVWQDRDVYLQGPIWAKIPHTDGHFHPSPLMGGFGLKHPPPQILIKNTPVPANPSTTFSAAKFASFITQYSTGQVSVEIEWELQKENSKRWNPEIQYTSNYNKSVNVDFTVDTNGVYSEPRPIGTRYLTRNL
# Experiment: ELISA on VLP2; binding after pH 3.0 51.1°C 15 min / untreated;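 note: binding of the heat-treated AAV-binding protein to VLP2, expressed as a percentage of the binding of the same protein without heating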
# Protocol: (§1) The residual activity was calculated by dividing the binding activity of AAV-binding protein to VLP2 when the heat treatment was performed by the binding activity of AAV-binding protein to VLP2 when the heat treatment was not performed.
row,Binder,Residual activity [%]
1,B1,80.2
2,B2,32
3,B3,55.9
4,B4,66.3
5,B5,43.1
6,B6,70.4
7,B7,70.2
8,B8,73.1
9,B9,48.9
10,B10,45.6
11,B11,48.4
12,B12,31.8
13,B13,29.4
14,B14,34.3
15,B15,36.4
16,B16,43.5
17,B17,38.8
18,B18,71.9
19,B19,49.9
20,B20,32.8
21,B21,41.4
22,B22,70.6
23,B23,63.4
24,B24,49.9

# Target: T1, VLP2 (virus-like particles of AAV2)
# Experiment: ELISA on VLP2; binding after pH 3.0 61.0°C 15 min / untreated
# Protocol: (3) The culture solution of (2) was centrifuged, and the obtained culture supernatant was diluted 32-fold with ultrapure water. The diluted culture solution in an amount of 60 μL and 60 μL of 0.1 M glycine hydrochloric acid buffer (pH 3.0) were mixed, and heat treatment and acid treatment were performed at 61.0° C. for 15 minutes.
# as §1
row,Binder,Residual activity [%]
1,B25,60.9
2,B26,52.4
3,B27,50.1
4,B28,53.3
5,B29,46.1
6,B30,49.6
7,B31,47.6
8,B32,44.9
9,B33,41.6
10,B34,45.3
11,B35,41.7
12,B36,56.5
13,B37,50.2
14,B38,41.1
15,B39,48.5
16,B40,55.7
17,B41,54
